Data reported in patent US20030228303A1.

How the values were obtained:
[1] = target: denatured SHaPrP 27-30 (Syrian hamster) (UniProt P04273); assay: ELISA on denatured PrP 27-30 (FIG. 10)
[2] = target: non-denatured SHaPrP 27-30 (Syrian hamster) (UniProt P04273); assay: ELISA on non-denatured PrP 27-30 (FIG. 9)
[3] = target: non-denatured SHaPrP 27-30 (Syrian hamster) (UniProt P04273); assay: estimated from immunoprecipitation (FIG. 12)

For 3F4 Fab, the Ka [1] was 1e+08 M⁻¹, the EC50 [2] was 2 µg/mL and the Ka [3] was under 1e+07 M⁻¹.
